The text below walks through data of patent US20100144645A1, “COMPOSITIONS AND METHODS FOR ENHANCING […] POTENCY OF […]-COMPOUNDS, A[…] ADVERSE SIDE EFFECTS, AND […] ABUSE” (SHIRE LLC, priority 2006, published 2010).

Residues, ends and D or L forms follow the SMILES beside them. *: point of attachment. X1 = COc1ccc2c3c1OC1C(O*)=CCC4[C@@H](C2)N(C)CC[C@]314

A short description of series [1]: Oral bioavailability of oxycodone conjugates (plasma oxycodone plus oxymorphone). Particulars: rats; for AUC % (Oral Bioavailability): Table G.
A short description of series [2]: stability 90 C., 20 min (V, BP, TW, BS) of hydrocodone conjugates. The settings on record: for stability 90 C., 20 min BP: BP (abbreviation not defined); for stability 90 C., 20 min BS: BS (abbreviation not defined); for stability 90 C., 20 min TW: TW (abbreviation not defined); for stability 90 C., 20 min V: V (abbreviation not defined).
A short description of series [3]: Oral bioavailability of hydrocodone conjugates (plasma hydrocodone plus hydromorphone). The settings on record: for bioavailabiltty (% HC) oral AUC / bioavailabiltty (% HC) oral Cmax: rats, relative to hydrocodone; for Oral:IN Index AUC: ratio of oral to IN AUC (% HC); for Oral:IN Index Cmax: ratio of oral to IN Cmax (% HC).
A short description of series [4]: Intranasal bioavailability of hydrocodone conjugates. Particulars: rats, relative to hydrocodone.
Setting [5] is: n = 4 animals, analysis by LC-MS, OXY = 100.

For `CC[C@H](C)[C@H](NC(=O)[C@H](CCC(=O)O)NC(=O)[C@@H](N)CCC(=O)O)C(=O)OC1=CCC2(O)[C@H]3Cc4ccc(OC)c5c4[C@@]2(CCN3C)C1O5` (stereo partly drawn) [Glu-Glu-Ile-OC], the “Oral (% AUC)” value in series [1] (setting [5]) is listed as 179 % AUC.
Turning to `COc1ccc2c3c1OC1C(OC(=O)[C@H](CC(C)C)NC(=O)[C@H](CCC(=O)O)NC(=O)[C@@H](N)CCC(=O)O)=CCC4(O)[C@@H](C2)N(C)CC[C@]314` (stereo partly drawn) [Glu-Glu-Leu-OC], the “Oral (% AUC)” value in series [1] (setting [5]) came to 80 % AUC.
For the compound `COc1ccc2c3c1OC1C(OC(=O)[C@H](Cc4ccccc4)NC(=O)[C@H](CCC(=O)O)NC(=O)[C@@H](N)CCC(=O)O)=CCC4(O)[C@@H](C2)N(C)CC[C@]314` (stereo partly drawn) [Glu-Glu-Phe-OC], the “Oral (% AUC)” value in series [1] (setting [5]) is recorded as 49 % AUC.
For the compound `COc1ccc2c3c1OC1C(OC(=O)[C@@H]4CCCN4C(=O)[C@H](CCC(=O)O)NC(=O)[C@@H](N)CCC(=O)O)=CCC4(O)[C@@H](C2)N(C)CC[C@]314` (stereo partly drawn) [Glu-Glu-Pro-OC], in series [1] (setting [5]), the “Oral (% AUC)” value amounted to 71 % AUC.
The same measure, in the same setting: the value for `COc1ccc2c3c1OC1C(OC(=O)[C@@H](NC(=O)[C@H](CCC(=O)O)NC(=O)[C@@H](N)CCC(=O)O)C(C)C)=CCC4(O)[C@@H](C2)N(C)CC[C@]314` (stereo partly drawn) [Glu-Glu-Val-OC] was 55 % AUC.
Consider `CC[C@H](C)[C@H](NC(=O)CNC(=O)CN)C(=O)OC1=CCC2(O)[C@H]3Cc4ccc(OC)c5c4[C@@]2(CCN3C)C1O5` (stereo partly drawn) [Gly-Gly-Ile-OC], for which, in series [1] (n = 4, LC-MS, Dosed at 40% higher levels than calculated), the “Oral (% AUC)” value was 224 % AUC.
In the case of `COc1ccc2c3c1OC1C(OC(=O)[C@H](Cc4ccccc4)NC(=O)CNC(=O)CN)=CCC4(O)[C@@H](C2)N(C)CC[C@]314` (stereo partly drawn) [Gly-Gly-Phe-OC], the “Oral (% AUC)” value in series [1] (setting [5]) came to 163 % AUC.
Same read-out and setting: the result for `COc1ccc2c3c1OC1C(OC(=O)[C@@H](NC(=O)CNC(=O)CN)C(C)C)=CCC4(O)[C@@H](C2)N(C)CC[C@]314` (stereo partly drawn) [Gly-Gly-Val-OC] reads 123 % AUC.
In the case of `CC[C@H](C)[C@H](N)C(=O)N[C@H](C(=O)N[C@H](C(=O)OC1=CCC2(O)[C@H]3Cc4ccc(OC)c5c4[C@@]2(CCN3C)C1O5)[C@@H](C)CC)[C@@H](C)CC` (stereo partly drawn) [Ile-Ile-Ile-OC], the “Oral (% AUC)” value in series [1] (setting [5]) worked out at 83 % AUC.
Turning to `COc1ccc2c3c1OC1C(OC(=O)[C@@H](NC(=O)[C@H](CC(C)C)NC(=O)[C@@H](N)CC(C)C)C(C)C)=CCC4(O)[C@@H](C2)N(C)CC[C@]314` (stereo partly drawn) [Leu-Leu-Val-OC], the “Oral (% AUC)” value in series [1] (setting [5]) is 81 % AUC.
As to `CC[C@H](C)[C@H](NC(=O)[C@H](CCCCN)NC(=O)[C@@H](N)CCCCN)C(=O)OC1=CCC2(O)[C@H]3Cc4ccc(OC)c5c4[C@@]2(CCN3C)C1O5` (stereo partly drawn) [Lys-Lys-Ile-OC], the “Oral (% AUC)” value in series [1] (setting [5]) was determined as 74 % AUC.
Regarding `COc1ccc2c3c1OC1C(OC(=O)[C@H](CC(C)C)NC(=O)[C@H](CCCCN)NC(=O)[C@@H](N)CCCCN)=CCC4(O)[C@@H](C2)N(C)CC[C@]314` (stereo partly drawn) [Lys-Lys-Leu-OC], the “Oral (% AUC)” value in series [1] (setting [5]) is listed as 46 % AUC.
Turning to `COc1ccc2c3c1OC1C(OC(=O)[C@H](Cc4ccccc4)NC(=O)[C@H](CCCCN)NC(=O)[C@@H](N)CCCCN)=CCC4(O)[C@@H](C2)N(C)CC[C@]314` (stereo partly drawn) [Lys-Lys-Phe-OC], the “Oral (% AUC)” value in series [1] (setting [5]) is 37 % AUC.
Same read-out and setting: the result for `COc1ccc2c3c1OC1C(OC(=O)[C@@H](NC(=O)[C@H](CCCCN)NC(=O)[C@@H](N)CCCCN)C(C)C)=CCC4(O)[C@@H](C2)N(C)CC[C@]314` (stereo partly drawn) [Lys-Lys-Val-OC] reads 108 % AUC; that for `CC[C@H](C)[C@H](NC(=O)[C@H](Cc1ccccc1)NC(=O)[C@@H](N)Cc1ccccc1)C(=O)OC1=CCC2(O)[C@H]3Cc4ccc(OC)c5c4[C@@]2(CCN3C)C1O5` (stereo partly drawn) [Phe-Phe-Ile-OC], 59 % AUC; that for `COc1ccc2c3c1OC1C(OC(=O)[C@@H](NC(=O)[C@H](Cc4ccccc4)NC(=O)[C@@H](N)Cc4ccccc4)C(C)C)=CCC4(O)[C@@H](C2)N(C)CC[C@]314` (stereo partly drawn) [Phe-Phe-Val-OC], 32 % AUC.
Regarding `CC[C@H](C)[C@H](NC(=O)[C@H](CC(C)C)NC(=O)[C@@H]1CCCN1)C(=O)OC1=CCC2[C@H]3Cc4ccc(OC)c5c4[C@@]2(CCN3C)C1O5` (stereo partly drawn) [Pro-Leu-Ile-HC], in series [2], the “stability 90 C., 20 min BP” value was 100; the “stability 90 C., 20 min BS” value is recorded as 100; the “stability 90 C., 20 min TW” value came to 100; the “stability 90 C., 20 min V” value is given as 0. Also, in series [3], the “bioavailabiltty (% HC) oral AUC” value is 141 % HC and the “bioavailabiltty (% HC) oral Cmax” value was found to be 172 % HC. Besides, in series [4], the “bioavailabiltty (% HC) IN AUC” value is 87 % HC and the “bioavailabiltty (% HC) IN Cmax” value stood at 101 % HC.
Regarding `CC[C@H](C)[C@H](NC(=O)[C@@H]1CCCN1C(=O)[C@@H]1CCCN1)C(=O)OC1=CCC2(O)[C@H]3Cc4ccc(OC)c5c4[C@@]2(CCN3C)C1O5` (stereo partly drawn) [Pro-Pro-Ile-OC], the “AUC % (Oral Bioavailability)” value in series [1] is 85%. For the same compound, the “Oral (% AUC)” value in series [1] (setting [5]) is on record as 85 % AUC.
On to `COc1ccc2c3c1OC1C(OC(=O)[C@H](CC(C)C)NC(=O)[C@@H]4CCCN4C(=O)[C@@H]4CCCN4)=CCC4[C@@H](C2)N(C)CC[C@]314` (stereo partly drawn) [Pro-Pro-Leu-HC], for which, in series [2], the “stability 90 C., 20 min BP” value was found to be 100; the “stability 90 C., 20 min BS” value was 100; the “stability 90 C., 20 min TW” value worked out at 100; the “stability 90 C., 20 min V” value was 2. In series [3], the “bioavailabiltty (% HC) oral AUC” value is recorded as 94 % HC, the “bioavailabiltty (% HC) oral Cmax” value turned out to be 108 % HC, the “Oral:IN Index AUC” value is recorded as 2.04 and the “Oral:IN Index Cmax” value amounted to 2.25. Further, in series [4], the “bioavailabiltty (% HC) IN AUC” value came out at 46 % HC and the “bioavailabiltty (% HC) IN Cmax” value stood at 48 % HC.
As for `COc1ccc2c3c1OC1C(OC(=O)[C@@H](NC(=O)[C@@H]4CCCN4C(=O)[C@@H]4CCCN4)C(C)C)=CCC4(O)[C@@H](C2)N(C)CC[C@]314` (stereo partly drawn) [Pro-Pro-Val-OC], in series [1], the “AUC % (Oral Bioavailability)” value came to 152%. Also, in series [1] (setting [5]), the “Oral (% AUC)” value came out at 152 % AUC.
In the case of `CC[C@H](C)[C@H](NC(=O)[C@H](Cc1ccccc1)NC(=O)[C@H](Cc1ccccc1)NC(=O)[C@H](Cc1ccc(O)cc1)NC(=O)[C@@H](N)Cc1ccc(O)cc1)C(=O)OC1=CCC2[C@H]3Cc4ccc(OC)c5c4[C@@]2(CCN3C)C1O5` (stereo partly shown) [Tyr2-Phe2-Ile-HC] (H-YYFFI-X1), in series [2], the “stability 90 C., 20 min BP” value came to 5; the “stability 90 C., 20 min BS” value is given as 50; the “stability 90 C., 20 min TW” value is given as 5; the “stability 90 C., 20 min V” value is 0. In series [3], the “bioavailabiltty (% HC) oral AUC” value was found to be 113 % HC, the “bioavailabiltty (% HC) oral Cmax” value worked out at 63 % HC, the “Oral:IN Index AUC” value is listed as 4.35 and the “Oral:IN Index Cmax” value is listed as 1.85. Further, in series [4], the “bioavailabiltty (% HC) IN AUC” value is 26 % HC and the “bioavailabiltty (% HC) IN Cmax” value was 34 % HC.
For `CC[C@H](C)[C@H](NC(=O)[C@H](Cc1ccc(O)cc1)NC(=O)[C@@H](N)Cc1ccc(O)cc1)C(=O)OC1=CCC2[C@H]3Cc4ccc(OC)c5c4[C@@]2(CCN3C)C1O5` (stereo partly drawn) [Tyr-Tyr-Ile-HC], in series [2], the “stability 90 C., 20 min BP” value came out at 66; the “stability 90 C., 20 min BS” value worked out at 100; the “stability 90 C., 20 min TW” value worked out at 23; the “stability 90 C., 20 min V” value stood at 0. In addition, in series [3], the “bioavailabiltty (% HC) oral AUC” value came to 145 % HC, the “bioavailabiltty (% HC) oral Cmax” value is 234 % HC, the “Oral:IN Index AUC” value stood at 7.25 and the “Oral:IN Index Cmax” value is 6.88. Besides, in series [4], the “bioavailabiltty (% HC) IN AUC” value came out at 20 % HC and the “bioavailabiltty (% HC) IN Cmax” value is on record as 34 % HC.
`CC[C@H](C)[C@H](NC(=O)[C@H](Cc1ccc(O)cc1)NC(=O)[C@@H](N)Cc1ccc(O)cc1)C(=O)OC1=CCC2(O)[C@H]3Cc4ccc(OC)c5c4[C@@]2(CCN3C)C1O5` (stereo partly drawn) [Tyr-Tyr-Ile-OC]: in series [1] (setting [5]), the “Oral (% AUC)” value worked out at 85 % AUC.
In the case of `COc1ccc2c3c1OC1C(OC(=O)[C@H](Cc4ccccc4)NC(=O)[C@H](Cc4ccc(O)cc4)NC(=O)[C@@H](N)Cc4ccc(O)cc4)=CCC4(O)[C@@H](C2)N(C)CC[C@]314` (stereo partly drawn) [Tyr-Tyr-Phe-OC], the “Oral (% AUC)” value in series [1] (setting [5]) was found to be 73 % AUC.
With `COc1ccc2c3c1OC1C(OC(=O)[C@@H]4CCCN4C(=O)[C@H](Cc4ccc(O)cc4)NC(=O)[C@@H](N)Cc4ccc(O)cc4)=CCC4(O)[C@@H](C2)N(C)CC[C@]314` (stereo partly drawn) [Tyr-Tyr-Pro-OC], in series [1] (setting [5]), the “Oral (% AUC)” value is 59 % AUC.
Turning to `COc1ccc2c3c1OC1C(OC(=O)[C@@H](NC(=O)[C@H](Cc4ccc(O)cc4)NC(=O)[C@@H](N)Cc4ccc(O)cc4)C(C)C)=CCC4(O)[C@@H](C2)N(C)CC[C@]314` (stereo partly drawn) [Tyr-Tyr-Val-OC], the “AUC % (Oral Bioavailability)” value in series [1] is reported as 124%. The “Oral (% AUC)” value in series [1] (setting [5]) is reported as 124 % AUC.
Regarding `COc1ccc2c3c1OC1C(OC(=O)[C@H](Cc4ccccc4)NC(=O)[C@@H](NC(=O)[C@@H](N)C(C)C)C(C)C)=CCC4(O)[C@@H](C2)N(C)CC[C@]314` (stereo partly drawn) [Val-Val-Phe-OC], in series [1] (setting [5]), the “Oral (% AUC)” value was 120 % AUC.
